Source: the RNAGym collection of RNA variant scans (doi:10.1073/pnas.2313332121)
Fewer inactive variants are shown than the library holds.

B1: TPR 5TU (parent)
chain: GGAUCUUCUCGAUCUAACAAAAAAGACAAAUCUGCCACAAAGCUUGAGAGCAUCUUCGGAUGCAGAGGCGGCAGCCUUCGGUGGCGCGAUAGCGCCAACGUUCUCAACUAUGACACGCAAAACGCGUGCUCCGUUGAAUGGAGUUUAUCAUG

Variants of: B1
Test: polymerase ribozyme fitness, log enrichment relative to wild type (log ratio); higher = more active; in vitro selection for triplet polymerase activity
Summary of the method: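 Mutant libraries for each subunit of a heterodimeric triplet polymerase ribozyme were made by PCR and then transcribed. Each library underwent one round of in vitro selection in triplicate: annealing with a biotinylated primer, the partner subunit and triplets, frozen incubation at −7 °C, gel excision of extended constructs, streptavidin-bead capture and RT-PCR. Input and output libraries were Illumina-sequenced, and only genotypes with ≥10 input reads and ≥1 read per output were kept. Fitness is the logarithm, base 2, of genotype enrichment over wild-type enrichment, computed from inverse-variance-weighted replicate averages.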

Point of comparison: U31A U144A, “polymerase ribozyme fitness (log ratio)” value 0.137. Against it:
- A30U C54G C95A A98U A122C G141C U144C — lower, ≤ -4.2
- A30G C76U — lower, -3.9
- A30G C54G A121U U139A U145C — lower, ≤ -4.2
- U31A C76U C93G — lower, -2.71
- A30U A52U C93A — lower, ≤ -4.2
- U31C A47U G88A C108A — lower, ≤ -4.2
- U31A U55G C93G A110C A115U C123G — lower, ≤ -4.2
- U31C C79G U139C U144G — lower, ≤ -4.2
- U31A G88A U90A G133A — lower, ≤ -4.2
- U31C C99G C103U — lower, -0.958
- A30U U144A — lower, -3.67
- A30U U45A G50C C79G G83C G126C — lower, ≤ -4.2
- U31A A41G C76U C93A G136A G140A — lower, -3.72
- U31A C96U A115C U146C — lower, -0.845
- U31C U102A — within 0.2 log units, 0.128
- A30U A47C G50A C54G G92C C123G — lower, ≤ -4.2
- A30G G46U G68U A147C — lower, ≤ -4.2
- A30G G50U C75A U78C G94C — lower, ≤ -4.2
- A30G C87U U101A U109C A115U A120U A122U U145G G152A — lower, ≤ -4.2
- U31A C95G U130A — lower, -3.43
- U31G C57U G83C C87A — lower, ≤ -4.2
- U31G A40C G42A G50A C54U C72U G94U — lower, ≤ -4.2
- U31C C35U G68C G92U U104A A115U A119C G143A — lower, ≤ -4.2
- A30U G86A — lower, -3.95
- U31C C69U G86U C96U — lower, -3.55
- A30G G86C A147C — lower, ≤ -4.2
- U31A G94A — lower, -0.349
- U31C U55A G136U A150G — lower, -1.81
- U31A U45A C76U C85U C93U G136U A150C — lower, ≤ -4.2
- U31A G58C U61A C87G C96U C99U C114G A150G — lower, ≤ -4.2
- A30G C54G G68A C95G A121C — lower, ≤ -4.2
- U31G C87U U127A — lower, -3.89
- U31A U53A G68U C95A C149G — lower, ≤ -4.2
- U31C G86C C93U A98U — lower, -1.96
- U31G U56A G136A A147C — lower, -0.143
- A30U A91U — lower, ≤ -4.2
- A30U A52C U90C C93U C95U C96U A106G — lower, ≤ -4.2
- A30G C95U — lower, -3.14
- U31G A37C G126U — lower, -2.65
- C32A A41C G94U C103A C118U — lower, ≤ -4.2
- A30G G48U C76G C96U A97C U134G — lower, ≤ -4.2
- U31A G84A G100A C108G C123G — lower, ≤ -4.2
- U31A C54G C57A C85G C123U — lower, -3.47
- A30G U56A C85G C132U — lower, ≤ -4.2
- U31A G46C C95U — lower, -1.57
- U31A A39G A40U A41C G48A C95U C131G U148A — lower, ≤ -4.2
- U31C G50A C96G — lower, -0.777
- U31G C93G G133U U134C — lower, ≤ -4.2
- A30G C108U U109A — lower, ≤ -4.2
- U31C C57G C87U U102A G136A — lower, -0.199
- C32A A41C C51U G58A C69U C93U C108U — lower, ≤ -4.2
- A30U A39G A98G C99U C105G — lower, ≤ -4.2
- A30U A41C G70C C93G — lower, ≤ -4.2
- U31A U53A C95U A119G — lower, -0.866
- A30G A150U — lower, -2.97
- A30U C38U — lower, -3.76
- A30U C87G C116A G141A — lower, ≤ -4.2
- U31A A39U C93G C95U C99U A107G A113U C132U U135C A138G — lower, ≤ -4.2
- U31G C54A C95A A142U — lower, -3.34
- U31G G65U — lower, ≤ -4.2
- U31G G65A — lower, -1.83
- A30G G42A U55G G65A C76G C87G A106U G143A A147C — lower, ≤ -4.2
- A30U A66G G68A C76U G141U A142U — lower, ≤ -4.2
- U31G G42U G58U G59A G86U U104G C131G G136C — lower, ≤ -4.2
- U31G C54U U101C — lower, -0.138
- C32A C35U C69A C75U A150G — lower, ≤ -4.2
- A30U A106G — lower, -2.9
- A30U C43U G70U C87G — lower, ≤ -4.2
- U31A A73U C95G — lower, -3.66
- A30G C38U A73U U78G C87G C105G — lower, ≤ -4.2
- A30G G48A G80U G88U U109C — lower, ≤ -4.2
- A30U C35U G68U A120U — lower, ≤ -4.2
- U31G C116G U144C — lower, -4.03
- C32A A39U C79A C85A C129G — lower, ≤ -4.2
- U31G A41C C75U C85G G88C A137U — lower, ≤ -4.2
- U31C G46C G92A — lower, -3.48
- A30U A37U U53A C87U — lower, ≤ -4.2
- U31A A40U C85G A106G G140A C149A — lower, ≤ -4.2
- A30U C38A C75G C85U G141C — lower, ≤ -4.2
- A30U C69U G83A — lower, ≤ -4.2
- A30G C93A — lower, -3.95
- C32A A91U C99U A120C — lower, ≤ -4.2
- U31G A37U A49C C93A A106G G117C U145C U148A — lower, ≤ -4.2
- U31A G86A U134C — lower, -0.431
- U31C A41G U53A U55A — within 0.2 log units, -0.0378
- A30U A73G — lower, -3.78
- U31G G50A C87A U135A — lower, ≤ -4.2
- U31A C85U C114U — lower, -1.15
- U31G C35U A60U A115G — lower, -3.22
- A30U U77A G84U A91C G94C C99G G141C — lower, ≤ -4.2
- A30U C95U — lower, -3.31
- A30U C95G — lower, -3.94
- U31G U53A A89C C93G G100A A137C A147U G152C — lower, ≤ -4.2
- A30U C54U C85A G128C G140U G141A — lower, ≤ -4.2
- A30G G48A C54U C85U — lower, ≤ -4.2
- A30U A66G A115U G143A — lower, ≤ -4.2
- C32A C38U G128C U135A — lower, ≤ -4.2
- U31G U33A C75G A91G G140A G152A — lower, -3.96
- U31A A39G G67C C72G C96U A107U A113G A115C U148A — lower, ≤ -4.2
- A30U A91U U104G — lower, ≤ -4.2
- U31C U53G — lower, -0.735
- U31A C54U G83U G94U G124A A142C — lower, -4.09
- U31G U53G G70U A89U C93U C114A C123G U135C G152U — lower, ≤ -4.2
- U31A C76U C116U U127G — lower, ≤ -4.2
- U31C G83C G140C — lower, -4.18
- A30U G58C U90G C95A — lower, ≤ -4.2
- A30G G42U A113U C114U C125U — lower, ≤ -4.2
- U31A C54A G84A C96U C132U — lower, -3.31
- C32A A41C A66C C95U C99G G117U A150C — lower, ≤ -4.2
- A30G U77C G84C G86U U102A C118U — lower, ≤ -4.2
- U31A C69G A89U C96G U104A — lower, -3.89
- A30G A91G — lower, ≤ -4.2
- A30G G46A A107U — lower, -4.03
- A30G C51U G68C A121G U127C — lower, ≤ -4.2
- A30U A49G A52G G58C U78A A110U C123U A142C — lower, ≤ -4.2
- U31G U55A A142U — lower, -1.54
- U31A A52C G58C G83A — lower, -4.11
- A30G G42U A52C C57A C96A A120G — lower, ≤ -4.2
- A30U C38G G50C C87G G117A — lower, ≤ -4.2
- U31G U56G C93G C96G G133C — lower, ≤ -4.2
- U31A U90G — lower, ≤ -4.2
- A30U C32G U55G G74A A89G C93A G133U A142C — lower, ≤ -4.2
- A30G U45G G46C C76U C87U U135A — lower, ≤ -4.2
- U31G U56A G80C C87G C99G — lower, ≤ -4.2
- A30G C95A U104A C118U C131A A138U G141A — lower, ≤ -4.2
- A30U G42A C85U A89G C99A A107C A122U C125A U144C C149A — lower, ≤ -4.2
- U31G C95G C105G — lower, ≤ -4.2
- U31A A52G G84U — lower, -0.528
- C32A C35U C57G G62A U90C C103G C116U C149U — lower, ≤ -4.2
- U31G G62C G88C A119G — lower, ≤ -4.2
- U31A A49G U55A G59U C96G — lower, -1.89
- A30G G92U A98U — lower, -3.79
- A30G A91U A137G G141U — lower, ≤ -4.2
- A30G U53A G62U A64G — lower, ≤ -4.2
- A30G G80A — lower, -3.66
- U31A G68C C76A C85A — lower, ≤ -4.2
- A30U A40G G50C G67A C76A C85U A89C C132U — lower, ≤ -4.2
- U31C C85U — higher, 0.604
- A30U C54U A73G C95A C116U — lower, -4.03
- A30G C87U A110U C131A G136U G141U — lower, ≤ -4.2
- A30U C54A A97U C116U G117U — lower, ≤ -4.2
- A30G C76U C96U — lower, ≤ -4.2
- A30U U44A C85A A110C U111C — lower, ≤ -4.2
- U31C G58A G94U G143U — lower, -2.9
- A30G C57U C63U G68C C95U A120C C125G — lower, ≤ -4.2
- A30G C35U U56G A66G U82G C99U A119U G126A A142C — lower, ≤ -4.2
- U31A G83C C105U U127G G133A A137C — lower, ≤ -4.2
- A30G U45A U78C G80C A89C G94U — lower, ≤ -4.2
- A30U U61G G68A C93U C103G A147C — lower, ≤ -4.2
- A30G G141C — lower, -3.51
- U31C A39C C57A C76G C95G C131U U144G — lower, ≤ -4.2
- A30U C76A — lower, -3.82
- U31G G59A G92U — lower, -0.919
- U31G U145A — higher, 0.652
- A30G C87G U101C A122G — lower, ≤ -4.2
- U31G U53A C95U U135G — lower, -3.6
- U31C G86U C96U — lower, -0.694
- A30U A52G U56G G80C G84U A98C A110U — lower, ≤ -4.2
- U31A U55A G83A G117A — lower, -0.253
- U31A G59A G84A U102G G128C A142C — lower, ≤ -4.2
- A30U U61A G70C C96A U111G G140A — lower, ≤ -4.2
- A30U C54A C76A C87G G92A G143C — lower, ≤ -4.2
- A30G U44C G88C C105A — lower, ≤ -4.2
- U31G C95U — higher, 0.463
- U31G C95A — within 0.2 log units, 0.165
- U31C C76U C93G U102C U145G — lower, ≤ -4.2
